Measurements as given in US20220204627A1 (WILLIAM ROBERT ARATHOON LIVING TRUST DATED AUGUST 29 2016, published 2022).
One block for each binder: values may come before it.

Experiments:
[1] = biological target: T1, human CD47-Fc fusion protein (R&D systems) (human, UniProt Q08722 19-141); test: ELISA, binding to CD47; design: Bmax: unit not given here
T1 construct: Bought (R&D systems); also called Fc-tagged CD47; not shown: Fc part of the bought fusion protein

[2] = biological target: T2, human P Glycoprotein (Pgp) / Multidrug resistance protein 1 (MDR1), gene ABCB1, on cells (human, UniProt P08183 1-1280); test: FACS on 293T-B1OX cells (overexpressing MDR1)
T2 construct: also called KPB1; KBP1

[3] = biological target: T3, EGFR on 293T cells overexpressing EGFR (UniProt P00533 25-1210, limits assumed); test: FACS on 293T-EGFR OX cells
T3 construct: whole, on cells

[4] = biological target: T1, human CD47-Fc fusion protein (R&D …); test: ELISA, plate coated with human CD47-Fc; design: Bmax: unit not given here
[5] = biological target: T1, human CD47-Fc fusion protein (R&D …); test: ELISA, binding to CD47
[6] = biological target: T4, cynomolgus CD47 on erythrocytes (cynomolgus, UniProt A0A5F8AK49 19-323 (rhesus entry)); test: flow cytometry on cynomolgus red blood cells (cy807 RBC), Alexa Fluor 647 channel
T4 construct: whole, on cells; also called cynomolgus RBCs

human CD47 on cells = biological target: T5, human CD47 on cells (human, UniProt Q08722 19-323); test: flow cytometry on human red blood cells (h408 RBC), Alexa Fluor 647 channel
T5 construct: also called KT14 (target name); leukocyte surface antigen CD47

[7] = biological target: T1, human CD47-Fc fusion protein (R&D …); test: ELISA, plate coated with human CD47-Fc
[8] = biological target: T2, human P Glycoprotein (Pgp) / Multidrug …; test: cell-based or functional assay
[9] = biological target: T2, human P Glycoprotein (Pgp) / Multidrug …; test: FACS on 293T cells overexpressing MDR1 (column MDR1 FACS)

B1: 15D3/5F9 (15D3 heavy chain with 5F9 light chain) (antibody, human IgG1, V domains shown)
VH: EVKVVESGGVLVRPGGSLKLSCAASGFTFSRYTMSWVRQTPEKRLEWVATISSGGGNTYYPDSVKGRFTVSRDNAMSSLYLQMSSLRSEDTALYYCARYGAGDAWFAYWGQGTLVTVSA
VL: DIVMTQSPLSLPVTPGEPASISCRSSQSIVYSNGNTYLGWYLQKPGQSPQLLIYKVSNRFSGVPDRFSGSGSGTDFTLKISRVEADVGVYYCFQGSHVPYTFGQGTKLEIK
notes: Light chain shuffle construct; human IgG1 / kappa constant regions
- Bmax [1]: 3.1
- Kd [1]: 252 nM

B2: 15D3 DD HC::necitumumab KK HC::MRK16 LC (bispecific antibody, IgG1, V domains shown)
VH 1: EVKVVESGGVLVRPGGSLKLSCAASGFTFSRYTMSWVRQTPEKRLEWVATISSGGGNTYYPDSVKGRFTVSRDNAMSSLYLQMSSLRSEDTALYYCARYGAGDAWFAYWGQGTLVTVSA
VH 2: QVQLQESGPGLVKPSQTLSLICTVSGGSISSGDYYWSWIRQPPGKGLEWIGYIYYSGSTDYNPSLKSRVTMSVDTSKNQFSLKVNSVTAADTAVYYCARVSIFGVGTFDYWGQGTLVTVSS
VL: DVLMTQTPVSLSVSLGDQASISCRSSQSIVHSTGNTYLEWYLQKPGQSPKLLIYKISNRFSGVPDRFSGSGSGTDFTLKISRVEAEDLGVYYCFQASHFPRTFGGGTKLEIK
notes: DD = K392D and K409D, KK = E356K and D399K (EU) in the IgG1 heavy chains; common light chain; also called 15D3DD: necitumumab KK:MRK16; KT3-2KK 15D3DD 1MRK16
- EC50 [2]: 33.1 nM
- EC50 [3]: 110 nM

B3: 5F9/UIC2 (5F9 heavy chain with UIC2 light chain) (antibody, human IgG1, V domains shown)
VH: QVQLVQSGAEVKKPGASVKVSCKASGYTFTNYNMHWVRQAPGQRLEWMGTIYPGNDDTSYNQKFKDRVTITADTSASTAYMELSSLRSEDTAVYYCARGGYRAMDYWGQGTLVTVSS
VL: DVVMTQTPRSLPVSLGDQASISCRSSQSLLHSNGNTYLHWYLQKPGQSPKLLIYKVSNRFSGVPDRFSGSGSGTDFTLKISRVEAEDLGVYFCSQSTHIPPWTFGGGTKLDIK
notes: as for B1
- Bmax [4]: 3.08
- Kd [4]: 6.3 nM

B5: 5F9/MRK16 (anti-CD47 antibody with two 5F9 heavy chains and two MRK16 light chains) (antibody, human IgG1, V domains shown)
VH: QVQLVQSGAEVKKPGASVKVSCKASGYTFTNYNMHWVRQAPGQRLEWMGTIYPGNDDTSYNQKFKDRVTITADTSASTAYMELSSLRSEDTAVYYCARGGYRAMDYWGQGTLVTVSS
VL: DVLMTQTPVSLSVSLGDQASISCRSSQSIVHSTGNTYLEWYLQKPGQSPKLLIYKISNRFSGVPDRFSGSGSGTDFTLKISRVEAEDLGVYYCFQASHFPRTFGGGTKLEIK
notes: Human IgG1 / kappa constant regions; also called KT14/MRK16 monoclonal; KT14_MRK16
- R4 (percent of red blood cells in the positive gate R4) [6]: 0.717%
- binding result [6]: no binding
- R4 (percent of red blood cells in the positive gate R4) (human CD47 on cells): 0.708%
- fold decrease in affinity against the un-swapped 5F9 control [7]: 100 fold
- Bmax [4]: 2.94
- Kd [4]: 0.17 nM

Further lines, results first:

- fold decrease in affinity against the un-swapped 15D3 control [5]: ~20 fold
- Bmax [1]: 3.94
- Kd [1]: 229 nM
B4: 15D3/MRK16 (anti-MDR1 antibody with two 15D3 heavy chains and two MRK16 light chains) (antibody, human IgG1, V domains shown)
VH: EVKVVESGGVLVRPGGSLKLSCAASGFTFSRYTMSWVRQTPEKRLEWVATISSGGGNTYYPDSVKGRFTVSRDNAMSSLYLQMSSLRSEDTALYYCARYGAGDAWFAYWGQGTLVTVSA
VL: DVLMTQTPVSLSVSLGDQASISCRSSQSIVHSTGNTYLEWYLQKPGQSPKLLIYKISNRFSGVPDRFSGSGSGTDFTLKISRVEAEDLGVYYCFQASHFPRTFGGGTKLEIK
notes: Human IgG1 / kappa constant regions; also called 15D3/MRK16 monoclonal; a15D3:MRK16 antibody

- EC50 [2]: 58.8 nM
- R4 (percent of red blood cells in the positive gate R4) [6]: 0.801%
- binding result [6]: no binding
- R4 (percent of red blood cells in the positive gate R4) (human CD47 on cells): 0.867%
- binding result (human CD47 on cells): no binding
- Vincristine IC50 (nM) on N6/ADR cells with antibody at 50 ug/mL [8]: 0.734 nM
B6: anti-MDR1 antibody MRK16 (recombinant, human IgG1/Kappa) (antibody, V domains shown)
VH: EVILVESGGGLVKPGGSLKLSCAASGFTFSSYTMSWVRQTPEKRLEWVATISSGGGNTYYPDSVKGRFTISRDNAKNNLYLQMSSLRSEDTALYYCARYYRYEAWFASWGQGTLVTVSA
VL: DVLMTQTPVSLSVSLGDQASISCRSSQSIVHSTGNTYLEWYLQKPGQSPKLLIYKISNRFSGVPDRFSGSGSGTDFTLKISRVEAEDLGVYYCFQASHFPRTFGGGTKLEIK

- binding result [9]: no binding
B7: UIC2 DD HC::cetuximab KK HC::MRK16 LC (bispecific antibody, V domains shown)
VH 1: AVQLQQSGPELVKTGASVKISCKASGYSFSNYYIHWVKQSHGKSLEWIGFISCYNGATFYNQKFKGKATFTVDTSSSTAYMKFNSLTFEDSAVYYCARLPIQFGNFYPMDYWGQGTSVTVSS
VH 2: not shown
VL: DVLMTQTPVSLSVSLGDQASISCRSSQSIVHSTGNTYLEWYLQKPGQSPKLLIYKISNRFSGVPDRFSGSGSGTDFTLKISRVEAEDLGVYYCFQASHFPRTFGGGTKLEIK
notes: DD / KK charge pair substitutions in the IgG1 heavy chains; common light chain
